Measurements from patent publication US20260242478A1 (published 2026).
Where no end group is shown, it is not given here.

How the values were obtained:
[1] = biological target: T1, Anti-PSMA Fab (SEQ ID NOs: 19, 20); assay: phage binding ELISA; biotinylated PSMA Fab on neutravidin plate, bound phage detected with anti-M13-HRP
T1 construct: Biotinylated and captured on neutravidin coated plates in the phage ELISA; also called 006 PSMA Fab
Protocol: (§1) Clonal phage were harvested as crude supernatants and screened via standard ELISAs. […] Prior to the addition of clonal phage. wells were incubated with blocking buffer and PSMA antigen or blocking buffer alone. Without washing or aspirating, clonal phage supernatants were then added to the wells and incubated for a short time. Wells were then washed followed by detection of bound phage using a horse radish conjugated anti-M13 antibody.

[2] = biological target: T1, Anti-PSMA Fab (SEQ ID NOs: 19, 20); assay: phage binding ELISA; PSMA Fab on plate pre-incubated with PSMA antigen as competitor, anti-M13-HRP detection
Protocol: as §1

[3] = biological target: T2, Anti-PSMA Fab (SEQ ID NOs: 19, 20); assay: phage binding ELISA; Fab-coated wells pre-incubated with PSMA antigen as competitor, anti-M13 HRP detection
T2 construct: Biotinylated and captured on neutravidin coated plates in the phage ELISA; also called 006 PSMA Fab
Protocol: as §1

[4] = biological target: T2, Anti-PSMA Fab (SEQ ID NOs: 19, 20); assay: phage binding ELISA; biotinylated PSMA Fab on neutravidin plates, clonal phage supernatant, anti-M13 HRP detection
Protocol: as §1

[5] = biological target: T3, Anti-PSMA Fab (SEQ ID NOs: 19, 20); assay: phage binding ELISA; Fab-coated wells pre-incubated with PSMA antigen as competitor, anti-M13-HRP detection;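 note: clonal phage supernatants screened, with reference wells given blocking buffer only (no PSMA antigen) before phage were added for a brief incubation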
T3 construct: Biotinylated PSMA Fab captured on neutravidin coated plates in the phage ELISA; also called 006 PSMA Fab
Protocol: as §1

[6] = biological target: T3, Anti-PSMA Fab (SEQ ID NOs: 19, 20); assay: phage binding ELISA; biotinylated PSMA Fab on neutravidin plate, clonal phage, anti-M13-HRP detection
Protocol: as §1

[7] = biological target: T4, Anti-PSMA Fab (SEQ ID NOs: 19, 20); assay: phage ELISA; biotinylated PSMA Fab on neutravidin plate, bound phage detected with anti-M13-HRP;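 note: crude clonal phage supernatants added, without a wash, to wells pretreated with PSMA antigen in blocking buffer or with blocking buffer only, then briefly incubated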
T4 construct: Biotinylated PSMA Fab captured on neutravidin coated plates in the phage ELISA; also called 006 PSMA Fab
Protocol: as §1

[8] = biological target: T4, Anti-PSMA Fab (SEQ ID NOs: 19, 20); assay: phage ELISA on captured PSMA Fab, wells pre-incubated with the competitor PSMA antigen
Protocol: as §1

Row | Binder | Anti-PSMA Fab (SEQ ID NOs: 19, 20) signal [1] | Anti-PSMA Fab signal in the presence of PSMA [2] | Anti-PSMA Fab signal in the presence of PSMA [3] | Anti-PSMA Fab signal [4] | also measured
1 | ASPMCIPEWMCSGV [Phage-2037] | 1.8 | 0.0687 | – | – | –
2 | IIKWCIPEWMCYMH [Phage-2028] | 1.81 | 0.104 | – | – | –
3 | FEKWCIPSWMCENA [Phage-2030] | 1.81 | 0.0725 | – | – | –
4 | IDKWCIPMWMCEMS (tested as clonal phage supernatant) [Phage-2045] | – | – | 0.0708 | 1.79 | –
5 | VVQLCSPVWMCEGF (Peptide-180 library clone, tested as clonal phage supernatant) [Phage-2015] | – | – | – | – | Anti-PSMA Fab signal in the presence of PSMA [5]: 0.086; Anti-PSMA Fab (SEQ ID NOs: 19, 20) signal [6]: 1.83
6 | LEKWCTPLWMCVGI (Peptide-180 library clone, tested as clonal phage supernatant) [Phage-2026] | – | – | – | – | Anti-PSMA Fab signal in the presence of PSMA [5]: 0.078; Anti-PSMA Fab (SEQ ID NOs: 19, 20) signal [6]: 1.82
7 | WPMLCIPEWMCDGL [Phage-2033] | 1.8 | 0.0977 | – | – | –
8 | APKLCIPNWMCVSM (tested as clonal phage supernatant) [Phage-2055] | – | – | 0.0746 | 1.77 | –
9 | EAIWCVPKWMCEGM (tested as clonal phage supernatant) [Phage-2050] | – | – | 0.0786 | 1.78 | –
10 | DIKWCIPPWMCQVE [Phage-2032] | 1.81 | 0.0691 | – | – | –
11 | EAKWCIPAWMCEDA [Phage-2036] | 1.8 | 0.0685 | – | – | –
12 | FPQWCIPIWMCEHT (tested as clonal phage supernatant) [Phage-2052] | – | – | 0.065 | 1.78 | –
13 | AWKSCIPSWMCEVQ (tested as crude clonal phage supernatant) [Phage-2058] | – | – | – | – | Anti-PSMA Fab signal (phage binding ELISA) [7]: 1.77; Anti-PSMA Fab signal in the presence of PSMA (phage binding ELISA) [8]: 0.0942
14 | MVKWCFPEWMCWTD (Peptide-180 library clone, tested as clonal phage supernatant) [Phage-2017] | – | – | – | – | Anti-PSMA Fab signal in the presence of PSMA [5]: 0.136; Anti-PSMA Fab (SEQ ID NOs: 19, 20) signal [6]: 1.83
15 | VDKWCIPQWMCDDQ (tested as clonal phage supernatant) [Phage-2054] | – | – | 0.116 | 1.77 | –
16 | ALMWCIPQWMCQDQ (Peptide-180 library clone, tested as clonal phage supernatant) [Phage-2023] | – | – | – | – | Anti-PSMA Fab signal in the presence of PSMA [5]: 0.102; Anti-PSMA Fab (SEQ ID NOs: 19, 20) signal [6]: 1.82
17 | WLNWCTPEWMCNGF (tested as clonal phage supernatant) [Phage-2056] | – | – | 0.147 | 1.77 | –
18 | VDHWCTPAWMCDGF (tested as clonal phage supernatant) [Phage-2047] | – | – | 0.106 | 1.78 | –
19 | EVHRCIPAWMCTTP (tested as clonal phage supernatant) [Phage-2046] | – | – | 0.0934 | 1.79 | –
20 | LDKWCTPSWMCYGM (Peptide-180 library clone, tested as clonal phage supernatant) [Phage-2018] | – | – | – | – | Anti-PSMA Fab signal in the presence of PSMA [5]: 0.106; Anti-PSMA Fab (SEQ ID NOs: 19, 20) signal [6]: 1.83
21 | VHKWCIPSWMCEAP [Phage-2040] | 1.79 | 0.0914 | – | – | –
22 | IVKWCTPPWMCTIY (Peptide-180 library clone, tested as clonal phage supernatant) [Phage-2019] | – | – | – | – | Anti-PSMA Fab signal in the presence of PSMA [5]: 0.153; Anti-PSMA Fab (SEQ ID NOs: 19, 20) signal [6]: 1.83

Row | Binder | Anti-PSMA Fab (SEQ ID NOs: 19, 20) signal [1] | Anti-PSMA Fab signal in the presence of PSMA [2] | Anti-PSMA Fab signal in the presence of PSMA [3] | Anti-PSMA Fab signal [4] | also measured
23 | MERWCKPAWMCADM (cysteine pairing not given here; also: fused to phage pIII, pIII sequence and linker not given here) [Phage-2038] | 1.8 | 0.0809 | – | – | –
24 | ELQRCTPWWMCFDV [Phage-2027] | 1.81 | 0.0689 | – | – | –
25 | VEKWCTPPWMCSLF (tested as crude clonal phage supernatant) [Phage-2057] | – | – | – | – | Anti-PSMA Fab signal (phage binding ELISA) [7]: 1.77; Anti-PSMA Fab signal in the presence of PSMA (phage binding ELISA) [8]: 0.1
26 | VEKWCIPSWMCAEV (cysteine pairing not given here; also: fused to phage pIII, pIII sequence and linker not given here) [Phage-2031] | 1.81 | 0.086 | – | – | –
27 | VIKLCSPPWMCIGL (Peptide-180 library clone, tested as clonal phage supernatant) [Phage-2020] | – | – | – | – | Anti-PSMA Fab signal in the presence of PSMA [5]: 0.0946; Anti-PSMA Fab (SEQ ID NOs: 19, 20) signal [6]: 1.82
28 | IVKWCTPEWMCVGF [Phage-2034] | 1.8 | 0.154 | – | – | –
29 | EVKWCTPEWMCAFL (cysteine pairing not given here; also: fused to phage pIII, pIII sequence and linker not given here, tested as clonal phage supernatant) [Phage-2044] | – | – | 0.0578 | 1.79 | –
30 | QMKWCTPEWMCVGM [Phage-2041] | 1.79 | 0.0767 | – | – | –
31 | ELKRCTPSWMCEGI (Peptide-180 library clone, tested as clonal phage supernatant) [Phage-2025] | – | – | – | – | Anti-PSMA Fab signal in the presence of PSMA [5]: 0.059; Anti-PSMA Fab (SEQ ID NOs: 19, 20) signal [6]: 1.82
32 | VAKWCTPPWMCAWL (cysteine pairing not given here; also: fused to phage pIII, pIII sequence and linker not given here, tested as clonal phage supernatant) [Phage-2048] | – | – | 0.197 | 1.78 | –
33 | SLNWCIPEWMCEGF [Phage-2035] | 1.8 | 0.0793 | – | – | –
34 | EGKWCIPPWMCERN [Phage-2029] | 1.81 | 0.0762 | – | – | –
35 | VPKWCTPAWMCNWN (tested as clonal phage supernatant) [Phage-2051] | – | – | 0.12 | 1.78 | –
36 | VQKWCIPAWMCDYV (Peptide-180 library clone, tested as clonal phage supernatant) [Phage-2024] | – | – | – | – | Anti-PSMA Fab signal in the presence of PSMA [5]: 0.0734; Anti-PSMA Fab (SEQ ID NOs: 19, 20) signal [6]: 1.82
37 | VVHWCIPEWMCERI (tested as clonal phage supernatant) [Phage-2053] | – | – | 0.098 | 1.78 | –
38 | DLPWCIPAWMCMGL [Phage-2039] | 1.8 | 0.0665 | – | – | –
39 | MDHWCTPPWMCEGW (tested as clonal phage supernatant) [Phage-2042] | – | – | 0.0642 | 1.79 | –
40 | VPKWCTPSWMCEST (tested as clonal phage supernatant) [Phage-2043] | – | – | 0.0787 | 1.79 | –
41 | PIRLCIPEWMCEMV (Peptide-180 library clone, tested as clonal phage supernatant) [Phage-2016] | – | – | – | – | Anti-PSMA Fab signal in the presence of PSMA [5]: 0.0575; Anti-PSMA Fab (SEQ ID NOs: 19, 20) signal [6]: 1.83
42 | TEIWCIPPWMCDGQ (Peptide-180 library clone, tested as clonal phage supernatant) [Phage-2021] | – | – | – | – | Anti-PSMA Fab signal in the presence of PSMA [5]: 0.0686; Anti-PSMA Fab (SEQ ID NOs: 19, 20) signal [6]: 1.82
43 | QLNWCIPEWMCQGL (Peptide-180 library clone, tested as clonal phage supernatant) [Phage-2022] | – | – | – | – | Anti-PSMA Fab signal in the presence of PSMA [5]: 0.124; Anti-PSMA Fab (SEQ ID NOs: 19, 20) signal [6]: 1.82
44 | VMPWCIPQWMCVGE (tested as clonal phage supernatant) [Phage-2049] | – | – | 0.0873 | 1.78 | –
